Laboratory results as given in patent US12077763B2, “RNA-based control of powdery mildew” (Greenlight Biosciences, Inc., priority 2021, dated 2024).

How the values were obtained:
E. necator = assay: Leaf disc assay, dry inoculum (settling tower), decrease in disease severity / hyphal growth (Example 2); conditions: decrease in disease severity (hyphal growth) relative to untreated control, value ± SE; for % decrease =/− SE TP1: time point 1 (untreated control hyphal growth ≥50%); for % decrease =/− SE TP2: time point 2
[1] = test system: GS1885, GS3336, GS1875, GS1879 transcripts; assay: Gene specific qRT-PCR of GS1885, GS3336, GS1875, GS1879 transcripts in leaf discs (Example 3); type: in vivo, E. necator; conditions: six-days post inoculation, FIG. 4
Experimental: FIG. 4. Gene specific qRT-PCR analysis of GS1885, GS3336, GS1875, GS1879 transcripts at 6-dpi in leaf discs. The 2-ΔΔCT method was used to analyze the relative changes in gene expression. Gene expression was normalized to the untreated control. GS145 (a non-target dsRNA sequence) was also included as control. Asterisks denote significant differences compared to untreated control (UTC). Statistical comparisons between treatments were performed with ANOVA, followed by Welch's analysis.
qRT-PCR was performed to validate the effect of exogenous dsRNA on the expression of selected targeted genes for which activity of dsRNA had been shown by leaf assay (as described in Example 2). Samples were treated with dsRNA, inoculated after 24 hours and six leaf discs per treatment were collected at six-days post inoculation (dpi) for further analysis.

Molecule | % decrease =/− SE TP1 (E. necator) [%] | % decrease =/− SE TP2 (E. necator) [%] | gene silencing in E. necator by sprayed dsRNA / gene expression levels vs untreated control [1]
GS1885: dsRNA trigger SEQ ID NO 213; gene target ribosomal processing RNA binding nucleolar protein (nucleic acid) TACGGATCGATAGACGGGTGAGTGAAAGATGAAGTGCAGGATTTTTCTCTATAAGTTTCTTACGTTGTAGCGCCGAAGCTTCTCTAAGTTTAATCTCTGATGGAGATAAAACGTTATATATAGGCGTACCAACAGCAATTGTCCCCTCTTTAAGTAGATATAACTTTCGCTTATCTTTGTCTCGGTCAGTGCGGAAGTTTGTCCCAGCTTCTGTAAGTTTTACAGCTTTTTCTCGATTAACTGCTCTTGACACTTGAAGTACGCGACCTTCTATTGTGTATAAGCCATTCTTATCAGCAGTTTCATCCTCTAAAATAGAGTTTTTAGCTTTAACAGCGTTTGCACCACTTTTGAAGGTACGAGGTGCACCATGGTAACAAGAGTCCGCATCTTCTTGTCTATAGAAGCAAACAAAGCCAGTGCCTTTAGGTCGACCAGTATTATTGTCTATGACCA | 67 ± 4 | 58 ± 5 | Induced Gene Silencing
GS3336: sprayed dsRNA for which activity had been shown by leaf assay; presumably listed in Table 1B (nucleic acid) sense: AAUGAUGUAAGCUCCAUGGGAAUUCAUAACCUGAGUGAGCAUCAAUAGCUUGGAAUAGUCGACAGAUAAUCCAACAAUACAUCGUAACUAAGUGAAGAUUGCCAGUUAUCAGACACCAUACAGUUGGCAUUAAGACUGUUCCUGCGCCAAGAACCAUUGUUUCUAUUGGUGAAGCAUAUUCAGCUGCUAGUCCGAAGGGUGCAGAGUAAUGAUGAUGUAUUUUAUGAAUAUGUUUGUAGAAAGGACCCCAAUGAAAUAAUCGAUGCAUCCAAUAAUGCCACGUAUCUUCCAACACGAAAAAGAAAGCAAUCUGAAGACACAUAGUUUUUAAUGAUGGAAAUGGGACACCAACAUCCAUACCACAAGCCUUUGUCAAUGGAUGAAAAAGCCAAAUUUGA antisense: UCAAAUUUGGCUUUUUCAUCCAUUGACAAAGGCUUGUGGUAUGGAUGUUGGUGUCCCAUUUCCAUCAUUAAAAACUAUGUGUCUUCAGAUUGCUUUCUUUUUCGUGUUGGAAGAUACGUGGCAUUAUUGGAUGCAUCGAUUAUUUCAUUGGGGUCCUUUCUACAAACAUAUUCAUAAAAUACAUCAUCAUUACUCUGCACCCUUCGGACUAGCAGCUGAAUAUGCUUCACCAAUAGAAACAAUGGUUCUUGGCGCAGGAACAGUCUUAAUGCCAACUGUAUGGUGUCUGAUAACUGGCAAUCUUCACUUAGUUACGAUGUAUUGUUGGAUUAUCUGUCGACUAUUCCAAGCUAUUGAUGCUCACUCAGGUUAUGAAUUCCCAUGGAGCUUACAUCAUU | 72 ± 2 | 57 ± 4 | Induced Gene Silencing
GS2668 (nucleic acid) sense: UUCCUAGUCAAACGUGCAUCUAGUGGAGGUGUACAAUUUUCUCGUGAUCCCCUAAACUUAACAAAUGUGCAUUCUCGCAAAUAUGCCGGAUUUGUUAACGAUAAGGCUGUCGGAAUUCUUCCCAUUGAAGGUGGUAAAGGAGGUAUUACUUUGAUCACCAAAAAAACUAAAUUUACCCAAAAACCUUCUAGCGCCAUAUACACAACAGUUUUUGGUGGUAAUAAAACUUCAAGACGGACAUAUAAGGGGGUUGUCAAUACUGUUGUCAAAUCAAGAUAUCGAUCUGAUCUUCGUGCUGAAGCUGUUGCUCGUGCGUCUGCUAUUCGGUACUCGCAAAAACCAAAGGGUGAUCUUCCUAAGAAGAAAUUGCGUGGAUCAAAAGCUAAAAAGG antisense: CCUUUUUAGCUUUUGAUCCACGCAAUUUCUUCUUAGGAAGAUCACCCUUUGGUUUUUGCGAGUACCGAAUAGCAGACGCACGAGCAACAGCUUCAGCACGAAGAUCAGAUCGAUAUCUUGAUUUGACAACAGUAUUGACAACCCCCUUAUAUGUCCGUCUUGAAGUUUUAUUACCACCAAAAACUGUUGUGUAUAUGGCGCUAGAAGGUUUUUGGGUAAAUUUAGUUUUUUUGGUGAUCAAAGUAAUACCUCCUUUACCACCUUCAAUGGGAAGAAUUCCGACAGCCUUAUCGUUAACAAAUCCGGCAUAUUUGCGAGAAUGCACAUUUGUUAAGUUUAGGGGAUCACGAGAAAAUUGUACACCUCCACUAGAUGCACGUUUGACUAGGAA | 46 ± 3 | 38 ± 4 | 
GS2674 (nucleic acid) sense: UUGAGAAAUUAUUUUCUCUUAUAGCGAAUUUGAUUGAGUAUUUUAUGUGAUAUUCACGUUGUUGGACCCUUAUAGAUCUGGGAUUUAGGGUCUUAGAAGACUCGUCUUAAAGCUUGCCCCAACGUAUGAAGUAUUAAAUACGUUACUUUUGAUAUGAAUAUAUUUUUUAUAUACACGAAUUAAUUUAAUCGAAGAGACCAAAGCCCAUAUCUUCAUCAGACUCUUCUUCUUUUUCUUCUU antisense: AAGAAGAAAAAGAAGAAGAGUCUGAUGAAGAUAUGGGCUUUGGUCUCUUCGAUUAAAUUAAUUCGUGUAUAUAAAAAAUAUAUUCAUAUCAAAAGUAACGUAUUUAAUACUUCAUACGUUGGGGCAAGCUUUAAGACGAGUCUUCUAAGACCCUAAAUCCCAGAUCUAUAAGGGUCCAACAACGUGAAUAUCACAUAAAAUACUCAAUCAAAUUCGCUAUAAGAGAAAAUAAUUUCUCAA | 17 ± 4 | 5 ± 6 | 
GS2679 (nucleic acid) sense: CCGCCAUACUGGGGGAUUAGAACCUUGUCGCCAACCUUGACAUUACAAGACACUCUGUUUCCAUCUUUGCCAACUGCACCAGGUCCUACAGCUAUAACGUGGGCUUCAUUGAGUUCCUUGACACUUUUUUCGGGAAGAAAAAUGCCACUCGCAGUCUUUGCUUCUGCCUUCACUCGUUGUACAAGAACCCGGUCAAGUAAAGGAGCAAGGGACUUGAUUGAUUUGAGUGUUGAAGCCAUGUUAGAGGAUAACGGACAGUGAAUUAUAAAGACUGUGCAAUAAAAUUGGUUUAAGAGAAAAGAUCUUUGAAGUCGCGUUACGUUAAAGUCGCUAUCUGUU antisense: AACAGAUAGCGACUUUAACGUAACGCGACUUCAAAGAUCUUUUCUCUUAAACCAAUUUUAUUGCACAGUCUUUAUAAUUCACUGUCCGUUAUCCUCUAACAUGGCUUCAACACUCAAAUCAAUCAAGUCCCUUGCUCCUUUACUUGACCGGGUUCUUGUACAACGAGUGAAGGCAGAAGCAAAGACUGCGAGUGGCAUUUUUCUUCCCGAAAAAAGUGUCAAGGAACUCAAUGAAGCCCACGUUAUAGCUGUAGGACCUGGUGCAGUUGGCAAAGAUGGAAACAGAGUGUCUUGUAAUGUCAAGGUUGGCGACAAGGUUCUAAUCCCCCAGUAUGGCGG | 25 ± 3 | 24 ± 5 | 
ES48: dsRNA trigger SEQ ID NO 111; gene target Hypotethical effector (nucleic acid) DNA: AGTAGCAGCGGACATCGCCGACGGCCCTACACTGTCAGGGCTACCTGGGGTTGCAGATTTCGACTTGTCTTCAGCGTCCTCCCCAAGTCTCGAGAAAAGACTTTGTTTTAGACGAGGATGCAATAAAAAATCTAAACACGCATCAGGCTTCCAATGTAAGAAGAAACATTTCAGTCTGGCGGCGGTAGAAAAAGCAAAAGCCGTAGCCTGCGCAAAGATCAAAGAAAACAAGCAGCGCAATGCCTTTCCTGCTCTTTACACCGCAACCGATTTCGAAACTCCCGGGCCTTATCTAGAATGGCCAATCAAGCGCAATGGAAGATTTTGGAATAATTTGAGAAGAGGCCGTTACCGCATCATCCTAACCGAAAACTGCAAAGTTGTCGGTGCTGTGATCCGGAAAAGCAATGGTTCATACCGCACATGCAAGAAACTGAGCGAAAAAGATGAAGATGAAGTTGATGATGATGATGAAAAAGAA | 15 ± 6 | 1 ± 3 | 
